Reference: patent US20200171068A1, “COMPOSITIONS COMPRISING APTAMERS AND NUCLEIC ACID PAYLOADS AND METHODS OF USING THE SAME” (Children's National Medical Center, priority 2017, published 2020)

What was measured:
[1] = tested on: hematopoiesis; format: in vivo, mouse
Protocol: The mice received intravenous injection of 670 pmol/20 g miR-26a or control chimera daily for 3 days. 150 mg/kg 5-FU was injected on day 2 of the chimera treatment. FIG. 2A is a graph showing the numbers of white blood cells (WBC) 10 days after 5-FU treatment. Data (mean+s.d.) were pooled from two experiments, involving a total of 6 mice per group. FIG. 2B is a graph showing the number of bone marrow (BM) cells 10 days after 5-FU treatment. Data (mean+s.d.) were pooled from two experiments, involving a total of 6 mice per group. FIG. 2C is (left) a representative picture of LSK population 5 days after 5-FU treatment with or without miR-26a chimera treatment; and (right) a graph showing the percentages of LSK population. Data (mean+s.d.) were pooled from two experiments, involving a total of 6 mice per group. FIG. 2D is a series of graphs showing apoptosis. Left, representative picture of Annexin V^+ in LSK population 5 days after 5-FU treatment. Right, the percentages of Annexin V^+ in the LSK population. Data (mean+s.d.) were pooled from two experiments, involving a total of 6 mice per group. *P<0.05, **P<0.01. FIG. 2E is a picture showing a putative miR-26a target site in the 3′UTR of mouse Bak1 (SEQ ID NO:19). Base pairs CU-GA -UACUUGAA (SEQ ID NO:20) of the Bak Sequence and its complementary basepairs are the sites with highly probability preferential conservation between mammals. The miR-26a sequence depicted is SEQ ID NO:21. FIG. 2F is a graph showing relative luciferase activity of reporter constructs containing the wild-type or mutant (mut) 3′-UTR of mouse Bak1 in HEK293 cells co-transfected with either miR-26a precursor (OE), miR-26a TuD inhibitor (TuD), or negative control (ctrl). Data were pooled from two experiments. FIG. 2G is a graph showing relative expression level of Bak1 mRNA in LSK population 5 days after 5-FU treatment. Data (mean+s.d.) were pooled from two experiments, involving a total of 6 mice per group. FIG. 2H is a graph showing that targeted mutation of the Bak1 gene increased survival of LSK in BM at day 5 after 150 mg/kg 5-FU treatments. Data shown are percent of LSK in BM (n=3 for Bak1^+/+ mice and n=4 for Bak1^−/− mice). […] of Bak1^+/+ and Bak1^−/− LSK in BM. Data shown percent of untreated, after normalization using means of LSK % from BM of two untreated Bak1^+/+ and Bak1^−/− mice as 100%. FIG. 2J is a graph showing the numbers of WBC 10 days after 150 mg/kg 5-FU treatments between Bak1^−/− mice and wild type mice. Data (mean+s.d.) were pooled from two experiments, involving a total of 7 mice per group. *P<0.05, **P<0.01.
For xenograft models, the NSG mice and BALB/c mice were subcutaneously injected with 2×10^6 viable MDA-MB-231 cells and TUBO cells in their right hind limbs, respectively. After the tumor grew to 1 cm in diameter, mice were randomly divided into the groups for each treatment. For no treatment control, 100 μl saline with 1% mouse serum was intravenously injected through tail vein. […] Tumor sizes were measured in two dimensions every 3 days. Tumor volume (V) was calculated using the following formula: V=(½) S^2×L (S. the shortest dimension; L, the longest dimension). Animals were euthanized when the tumor size was over 2 cm diameters, tumor ulcerated, or became necrotic. For chimera treatment in normal mice, C57BL/6 mice were treated with miR-26a chimera (670 pmol/20 g) everyday for 3 days by intravenous injection. At day 2, 150 mg/kg 5-FU and/or 120 mg/kg carboplatin was injected together with the chimera. Peripheral bloods were collected at day 5 and day 10 after the 5-FU treatment. Complete blood counts were measured by Hemavet 950FS (Drew Scientific, Miami Lakes, Fla., USA).
For aptamer binding assay, streptavidin-APC (Cat #554067) […] Bioscience, San Jose, Calif., USA) was used for detecting the biotin-conjugated aptamers by flow cytometry. Other cell targeting aptamer specific for Ramos cells (28) was used for negative control. […]

[2] = tested on: hematopoiesis; experiment: Carboplatin-induced myelosuppression in mice; format: in vivo, mouse
Protocol: For xenograft models, the NSG mice and BALB/c mice were subcutaneously injected with 2×10^6 viable MDA-MB-231 cells and TUBO cells in their right hind limbs, respectively. After the tumor grew to 1 cm in diameter, mice were randomly divided into the groups for each treatment. For no treatment control, 100 μl saline with 1% mouse serum was intravenously injected through tail vein. For treatment groups, 670 pmol/20 g chimeras and/or 5(0 mg/kg 5-fluorouracil (5-FU), or 120 mg/kg carboplatin were also intravenously injected. Tumor sizes were measured in two dimensions every 3 days. Tumor volume (V) was calculated using the following formula: V=(½) S^2×L (S. the shortest dimension; L, the longest dimension). Animals were euthanized when the tumor size was over 2 cm diameters, tumor ulcerated, or became necrotic. For chimera treatment in normal mice, C57BL/6 mice were treated with miR-26a chimera (670 pmol/20 g) everyday for 3 days by intravenous injection. At day 2, 150 mg/kg 5-FU and/or 120 mg/kg carboplatin was injected together with the chimera. Peripheral bloods were collected at day 5 and day 10 after the 5-FU treatment. Complete blood counts were measured by Hemavet 950FS (Drew Scientific, Miami Lakes, Fla., USA).

Row | Molecule | reduction in the LSK population ([1]; C57BL/6, mouse, in vivo, 5 days) [fold] | Bak1 expression in LSK cells ([1]; mouse, in vivo) | percent of apoptotic (Annexin V+) LSK ([1]; mouse, in vivo) | carboplatin-induced myelosuppression (figure title) ([2]; 670 pmol/20 g i.v. daily for 3 days, FIG. 6) | carboplatin-induced reduction in WBC and RBC ([2]; 3 daily injections of chimera) | carboplatin-induced reduction of platelet on day 5 ([2]; 3 daily injections of chimera) | drop of platelets from day 5 to day 10 ([2]; 3 daily injections of chimera) | 5-FU-induced myelosuppression (leukocyte counts, bone marrow cellularity) ([1]; 670 pmol/20 g chimera i.v. daily for 3 days, 150 mg/kg 5-FU on day 2) | 5-FU-induced myelosuppression (WBC, RBC, PLT), chimera mixed with 5-FU ([1]; 150 mg/kg 5-FU with 2 nmol/20 g chimera i.v. at same time, 5 and 10 days) | prevention of 5-FU-induced reduction in the LSK population ([1]; 5 days after 5-FU, chimera 670 pmol/20 g daily for 3 days) | protection of LSK from 5-FU-induced apoptosis ([1]; 5 days after 5-FU, chimera treatment) | 5-FU-induced Bak elevation in LSK cells ([1]; mouse, in vivo)
1 | O=c1[nH]cc(F)c(=O)[nH]1 [5-FU, 5-fluorouracil, reference compound] | ~10 | massively induced | massively increased |  |  |  |  |  |  |  |  | 
2 | miR-26a chimera: mouse c-Kit DNA aptamer-C3-passenger RNA, passenger RNA-TEG-cholesterol and miR-26a-5p guide strand annealed (SEQ ID NO:6/7, 8, 9) (nucleic acid, chemistry not fully specified) chain 1: GCTCAACGCGGGACGGCTCTCCCATTGAC chain 2: CCUAUUCUGG chain 3: GUUACUUGCACG guide: UUCAAGUAAUCCAGGAUAGGCU |  |  |  | protects mice against carboplatin-induced myelosuppression | prevented reduction in WBC and RBC | not prevented | prevented further drop of platelets | significantly ameliorated myelosuppression | protects mice against 5-FU-induced myelosuppression | largely prevented | specifically protected | significantly diminished
